Results published in the Human Domainome abundance scans (Beltran et al. 2025).

B1: TOX high mobility group box family member 3, residues 256 to 323; numbered along this chain, O15405 (parent)
chain: QKPVSAYALFFRDTQAAIKGQNPNATFGEVSKIVASMWDSLGEEQKQVYKRKTEAAKKEYLKALAAYR

Variants of: B1
Test: abundance fitness (aPCA) (normalised: wild type 0, dead -1); higher = more abundant; growth selection in yeast, the domain comes from the species named
Conditions: Homo sapiens

Abundance fitness: each site, then its substitutions
K62: Q -0.118 | M -0.205 | W -0.838 | C -0.3 | N -0.069 | F -0.519 | A -0.022 | D 0.019 | P -0.142 | L -0.344 | E -0.006 | S -0.092 | V -0.458 | G -0.133 | R -0.002 | Y -0.396 | I -0.538
A56: V -0.054 | G -0.017 | K 0.17 | C -0.104 | P -0.233 | Y -0.102 | M -0.063 | E -0.007 | L -0.109 | R -0.201 | S -0.146 | F -0.548 | Q -0.017 | I -0.167 | W -0.463
E59: T -0.083 | C -0.366 | D 0.047 | I -0.663 | Q -0.205 | P -0.061 | N -0.246 | H -0.744 | M -0.51 | S -0.166 | G -0.242 | W -0.573 | R -0.162 | K 0.024 | A -0.122 | F -0.443 | V -0.3 | L -0.39 | Y -0.577
A65: H -0.081 | F -0.111 | Q 0.004 | G 0.067 | P 0.117 | V -0.049 | E 0.113 | L -0.03 | R -0.037 | T 0.081 | D 0.078 | W -0.082 | K 0.036 | N 0.098 | Y -0.48 | S 0.042
Y67: W -0.158 | M 0.161 | P 0.352 | L -0.044 | N 0.288 | F -0.106 | D 0.256 | G 0.263 | V 0.323 | T 0.274 | K 0.244 | A 0.263 | E 0.138 | I -0.012 | C 0.208 | R 0.306 | Q 0.281 | H 0.155
R68: M -0.247 | A -0.07 | T -0.007 | F -0.33 | L -0.126 | N 0.198 | W -0.322 | K 0.101 | Y -0.292 | G -0.01 | V -0.355 | I -0.65 | P 0.297 | H -0.137 | E 0.197 | Q -0.044
E54: W -0.331
L61: Y -0.087 | N -0.068 | K 0.247 | G 0.08 | H 0.134 | D 0.319 | I -0.029 | W -0.19 | E -0.064 | M -0.138 | C -0.014 | S 0.22 | R 0.015 | T 0.135 | Q 0.146 | V 0.119 | F -0.213
A63: F -0.637 | G 0.201 | N 0.107 | S 0.132 | V -0.212 | M -0.178 | C -0.105 | D 0.08 | Y -0.167 | E 0.285 | L -0.395 | I -0.34 | P 0.111 | W -0.178 | H 0.155 | K 0.173 | Q 0.119
A66: I -0.333 | C -0.038 | K -0.221 | Y -0.111 | N 0.135 | S 0.061 | F -0.453 | E 0.218 | D 0.509 | R 0.056 | Q 0.093 | P 0.182 | V 0.064 | H 0.124 | T 0.184 | M -0.097 | W -0.103
L64: H 0.285 | P 0.33 | A -0.093 | R 0.088 | E 0.354 | F -0.273 | S 0.128 | Y -0.172 | W -0.227 | K 0.205 | V 0.131 | G 0.241 | N 0.173 | C 0.153
